This note sets out measurements from US20140186897A1, “TRANSFORMANT OF YEAST OF GENUS SCHIZOSACCHAROMYCES, METHOD FOR PRODUCING SAME, METHOD FOR PRODUCING ß-GLUCOSIDASE, AND CELLULOSE DEGRADATION METHOD” (ASAHI GLASS COMPANY, LIMITED, priority 2011, published 2014).

The nature of data set [1]: glucosidase activity measurement of culture supernatant (pNPG). Format: biochemical. The settings on record: Example 9, Table 11. The procedure:
A mutant strain which formed a large colony was selected from P3AaBGL1 mutant strain library. Then, thus selected strain and P3ASP3326 strain as the original strain were cultivated in 150 μl/well (96-well plate) of YES medium at 30° C. for two days. 50 μl of each culture supernatant was diluted by 150 μl of 50 mM acetate buffer (pH 5.0) to prepare a diluted enzyme sample. Then, the enzymatic activity of the sample was measured in accordance with the following method.
To 10 μl of 20 mM p-nitrophenyl-β-D-glucoside (hereinafter abbreviated as pNPG), 10 μl of 1M sodium acetate buffer solution (pH 5.0) and 130 μl of water were added, and then 50 μl of the diluted enzyme sample was introduced for reacting them at 37° C. for 10 minutes. 100 μl of the reaction mixture was mixed with 100 μl of 2% sodium carbonate solution to terminate reaction, and then the amount of free p-nitrophenol was colorimetrically measured at a wavelength of 450 nm.
The amount of enzyme that produces 1 μmol of p-nitrophenol per minute was defined as 1 U.
The P3AaBGL1 mutant strain obtained as above was cultivated in YES medium at 30° C. for one day. 100 μl of the culture broth was inoculated on 5 ml of YPD medium (1% of yeast extract, 2% of peptone, and 2% of glucose), followed by cultivation at 30° C. for two days. Thereafter, the culture broth was centrifuged to obtain a culture supernatant.
(§1) By using the above-obtained culture supernatant of the P3AaBGL1 mutant strain, a diluted enzyme sample was prepared, and then the enzymatic activity of the sample was measured in accordance with the above-described activity measurement method. Further, the glucose inhibition at a final glucose concentration of from 0.1 to 200 mM and the thermostability at a warming temperature of from 50 to 75° C. were measured for evaluation.

The nature of data set [2]: glucose inhibition measurement (residual glucosidase activity in the presence of glucose). Format: biochemical. The settings on record: for Residual glucosidase activity, Glc 0 mM / Residual glucosidase activity, Glc 1 mM / Residual glucosidase activity, Glc 5 mM / Residual glucosidase activity, Glc 10 mM / Residual glucosidase activity, Glc 20 mM / Residual glucosidase activity, Glc 50 mM / Residual glucosidase activity, Glc 100 mM / Residual glucosidase activity, Glc 200 mM: Example 9; for Residual glucosidase activity, Glc 0 mM: glucose 0 mM (reference set to 100); for Residual glucosidase activity, Glc 1 mM: glucose 1 mM; for Residual glucosidase activity, Glc 5 mM: glucose 5 mM; for Residual glucosidase activity, Glc 10 mM: glucose 10 mM; for Residual glucosidase activity, Glc 20 mM: glucose 20 mM; for Residual glucosidase activity, Glc 50 mM: glucose 50 mM; for Residual glucosidase activity, Glc 100 mM: glucose 100 mM; for Residual glucosidase activity, Glc 200 mM: glucose 200 mM; for resistance to glucose inhibition (in words): compared with P3AaBGL1 / β-glucosidase without the mutation. The method, then:
To 10 μl of 20 mM pNPG, 10 μl of 1M sodium acetate buffer solution (pH 5.0) and from 4 to 10 μl of 1M glucose (final concentration of from 20 to 50 mM) were added, followed by addition of water up to the total volume of 150 μl. Thereafter, 50 μl of the diluted enzyme sample was introduced for reacting them at 37° C. for 10 minutes. As a control, a glucose-free reaction mixture was used, and then the reaction was carried out at 37° C. for 10 minutes, in the same manner. 100 μl of each reaction mixture was mixed with 100 μl of 2% sodium carbonate solution to terminate reaction, and then the amount of liberated p-nitrophenol was colorimetrically measured at a wavelength of 450 nm.
The ratio (%) of the colorimetric value of each reaction mixture to the colorimetric value of the control sample (glucose-free sample) was defined as the residual activity after glucose inhibition.
as §1
(§2) 11F10 strain, 22A12 strain, 28C02 strain, 29F09 strain and mutBGL1 strain selected from the mutant strains, and ASP3326 strain as the original strain were cultivated in a Sakaguchi flask containing 100 ml of YPD medium at 30° C. for two days. To each of the culture supernatants obtained by cultivating them, […] was added until 80% saturation was reached, thereby to carry out ammonium sulfate precipitation at 4° C. for 2 hours. Thereafter, centrifugation was carried out to collect pellets, and the pellets were dissolved in 10 ml of 10 mM citrate phosphate buffer solution (pH 7.0). Then, desalting and concentration were carried out by using an ultrafiltration membrane having MWCO of 100,000, thereby to recover 1 ml of a crude liquid. Thus recovered crude liquid was purified by using Hitrap QXL column to collect a fraction of a peak of pNPG activity, thereby to obtain a purified sample. Elution was carried out by using a 10 mM citrate phosphate buffer solution (pH 7.0) and a NaCl concentration gradient (0 to 1M).
(§3) In the same manner as in Example 1, the residual glucosidase activities after glucose inhibition at a glucose concentration of from 0.1 to 200 mM were measured. Further, the residual glucosidase activities after heat treatment at a temperature of from 50 to 75° C. for 10 minutes were measured.

Data set [3] can be described thus: thermostability measurement (residual glucosidase activity after heat treatment). Format: physicochemical. The settings on record: for Residual glucosidase activity, Temp 50° C. / Residual glucosidase activity, Temp 55° C. / Residual glucosidase activity, Temp 60° C. / Residual glucosidase activity, Temp 65° C. / Residual glucosidase activity, Temp 70° C. / Residual glucosidase activity, Temp 73° C. / Residual glucosidase activity, Temp 75° C. / Residual glucosidase activity, Untreated: Example 9; for Residual glucosidase activity, Temp 50° C.: 10 minutes at 50° C.; for Residual glucosidase activity, Temp 55° C.: 10 minutes at 55° C.; for Residual glucosidase activity, Temp 60° C.: 10 minutes at 60° C.; for Residual glucosidase activity, Temp 65° C.: 10 minutes at 65° C.; for Residual glucosidase activity, Temp 70° C.: 10 minutes at 70° C.; for Residual glucosidase activity, Temp 73° C.: 10 minutes at 73° C.; for Residual glucosidase activity, Temp 75° C.: 10 minutes at 75° C.; for Residual glucosidase activity, Untreated: no heat treatment (reference set to 100); for thermostability (in words): compared with P3AaBGL1 / β-glucosidase without the mutation. The procedure: To 10 μl of 20 mM pNPG, 10 μl of 1M sodium acetate buffer solution (pH 5.0) and 130 μl of water were added, and then 50 μl of a diluted enzyme sample preliminarily heat-treated at […] for 10 minutes was introduced for reacting them at 37° C. for 10 minutes. As a control, a diluted enzyme sample which was not subjected to the heat treatment was used, and then the reaction was carried out at 37° C. for 10 minutes, in the same manner. 100 μl of each reaction mixture was mixed with 100 μl of 2% sodium carbonate solution to terminate reaction, and then the amount of liberated p-nitrophenol was colorimetrically measured at a wavelength of 450 nm.
The ratio (%) of the colorimetric value of each reaction mixture to the colorimetric value of the control sample (untreated sample) was defined as the residual activity after heat treatment.
as §1, §2, §3

B1: R629L: modified-type P3AaBGL1 with R629L only (mutation 6) (protein)
chain: MKITAVIALLFSLAAASPIPVADPGVVSVSLKKRADELAFSPPFYPSPWANGQGEWAEAYQRAVAIVSQMTLDEKVNLTTGTGWELEKCVGQTGGVPRLNIGGMCLQDSPLGIRDSDYNSAFPAGVNVAATWDKNLAYLRGQAMGQEFSDKGIDVQLGPAAGPLGRSPDGGRNWEGFSPDPALTGVLFAETIKGIQDAGVVATAKHYILNEQEHFRQVAEAAGYGFNISDTISSNVDDKTIHEMYLWPFADAVRAGVGAIMCSYNQINNSYGCQNSYTLNKLLKAELGFQGFVMSDWGAHHSGVGSALAGLDMSMPGDITFDSATSFWGTNLTIAVLNGTVPQWRVDDMAVRIMAAYYKVGRDRLYQPPNFSSWTRDEYGFKYFYPQEGPYEKVNHFVNVQRNHSEVIRKLGADSTVLLKNNNALPLTGKERKVAILGEDAGSNSYGANGCSDRGCDNGTLAMAWGSGTAEFPYLVTPEQAIQAEVLKHKGSVYAITDNWALSQVETLAKQASVSLVFVNSDAGEGYISVDGNEGDRNNLTLWKNGDNLIKAAANNCNNTIVVIHSVGPVLVDEWYDHPNVTAILWAGLPGQESGNSLADVLYGRVNPGAKSPFTWGKTREAYGDYLVLELNNGNGAPQDDFSEGVFIDYRGFDKRNETPIYEFGHGLSYTTFNYSGLHIQVLNASSNAQVATETGAAPTFGQVGNASDYVYPEGLTRISKFIYPWLNSTDLKASSGDPYYGVDTAEHVPEGATDGSPQPVLPAGGGSGGNPRLYDELIRVSVTVKNTGRVAGDAVPQLYVSLGGPNEPKVVLRKFDRLTLKPSEETVWTTTLTRRDLSNWDVAAQDWVITSYPKKVHVGSSSRQLPLHAALPKVQ
On to B1, for which the Activity in data set [1] is recorded as 526 mU/ml. For the same molecule, in data set [2], the “Residual glucosidase activity, Glc 0 mM” value is recorded as 100%; the “Residual glucosidase activity, Glc 1 mM” value is given as 91.5%; the “Residual glucosidase activity, Glc 5 mM” value came out at 67.4%; the “Residual glucosidase activity, Glc 10 mM” value was found to be 53.9%. Moreover, in data set [2], the “Residual glucosidase activity, Glc 20 mM” value worked out at 37.6%; the “Residual glucosidase activity, Glc 50 mM” value is reported as 19.6%; the “Residual glucosidase activity, Glc 100 mM” value is 11.1%; the “Residual glucosidase activity, Glc 200 mM” value was determined as 6.9%. The “resistance to glucose inhibition (in words)” value in data set [2] was “without decreasing”. Further, in data set [3], the “Residual glucosidase activity, Temp 50° C.” value was 98.7%; the “Residual glucosidase activity, Temp 55° C.” value came out at 93.7%; the “Residual glucosidase activity, Temp 60° C.” value worked out at 90.7%; the “Residual glucosidase activity, Temp 65° C.” value is on record as 71.8%. Further, in data set [3], the “Residual glucosidase activity, Temp 70° C.” value is 26.5%; the “Residual glucosidase activity, Temp 73° C.” value is on record as 3.5%; the “Residual glucosidase activity, Temp 75° C.” value is given as 1.5%; the “Residual glucosidase activity, Untreated” value worked out at 100%. The “thermostability (in words)” value in data set [3] is listed as “can be improved”.

B2: Q156L: modified-type P3AaBGL1 with Q156L only (protein)
chain: MKITAVIALLFSLAAASPIPVADPGVVSVSLKKRADELAFSPPFYPSPWANGQGEWAEAYQRAVAIVSQMTLDEKVNLTTGTGWELEKCVGQTGGVPRLNIGGMCLQDSPLGIRDSDYNSAFPAGVNVAATWDKNLAYLRGQAMGQEFSDKGIDVLLGPAAGPLGRSPDGGRNWEGFSPDPALTGVLFAETIKGIQDAGVVATAKHYILNEQEHFRQVAEAAGYGFNISDTISSNVDDKTIHEMYLWPFADAVRAGVGAIMCSYNQINNSYGCQNSYTLNKLLKAELGFQGFVMSDWGAHHSGVGSALAGLDMSMPGDITFDSATSFWGTNLTIAVLNGTVPQWRVDDMAVRIMAAYYKVGRDRLYQPPNFSSWTRDEYGFKYFYPQEGPYEKVNHFVNVQRNHSEVIRKLGADSTVLLKNNNALPLTGKERKVAILGEDAGSNSYGANGCSDRGCDNGTLAMAWGSGTAEFPYLVTPEQAIQAEVLKHKGSVYAITDNWALSQVETLAKQASVSLVFVNSDAGEGYISVDGNEGDRNNLTLWKNGDNLIKAAANNCNNTIVVIHSVGPVLVDEWYDHPNVTAILWAGLPGQESGNSLADVLYGRVNPGAKSPFTWGKTREAYGDYLVRELNNGNGAPQDDFSEGVFIDYRGFDKRNETPIYEFGHGLSYTTFNYSGLHIQVLNASSNAQVATETGAAPTFGQVGNASDYVYPEGLTRISKFIYPWLNSTDLKASSGDPYYGVDTAEHVPEGATDGSPQPVLPAGGGSGGNPRLYDELIRVSVTVKNTGRVAGDAVPQLYVSLGGPNEPKVVLRKFDRLTLKPSEETVWTTTLTRRDLSNWDVAAQDWVITSYPKKVHVGSSSRQLPLHAALPKVQ
B2 displayed an Activity in data set [1] of 507 mU/ml. In data set [2], the “Residual glucosidase activity, Glc 0 mM” value was 100%; the “Residual glucosidase activity, Glc 1 mM” value was found to be 92.8%; the “Residual glucosidase activity, Glc 5 mM” value is 64.9%; the “Residual glucosidase activity, Glc 10 mM” value was 46.8%. Besides, in data set [2], the “Residual glucosidase activity, Glc 20 mM” value is reported as 31.5%; the “Residual glucosidase activity, Glc 50 mM” value stood at 15.5%; the “Residual glucosidase activity, Glc 100 mM” value turned out to be 8.8%; the “Residual glucosidase activity, Glc 200 mM” value is on record as 5.4%. In addition, in data set [2], the “resistance to glucose inhibition (in words)” value is recorded as “decrease”. Further, in data set [3], the “Residual glucosidase activity, Temp 50° C.” value was 93.9%; the “Residual glucosidase activity, Temp 55° C.” value worked out at 89.7%; the “Residual glucosidase activity, Temp 60° C.” value came to 83.9%; the “Residual glucosidase activity, Temp 65° C.” value was 46.0%. Besides, in data set [3], the “Residual glucosidase activity, Temp 70° C.” value turned out to be 6.3%; the “Residual glucosidase activity, Temp 73° C.” value worked out at 0.9%; the “Residual glucosidase activity, Temp 75° C.” value is given as 1.4%; the “Residual glucosidase activity, Untreated” value was 100%. Also, the “thermostability (in words)” value in data set [3] was “decrease”.
